Assay results reported in publication PMC9213739, “Substrates and Loaded Iron Ions Relative Position Influence the Catalytic Characteristics of the Metalloenzymes Angelica archangelica Flavone Synthase I and Camellia sinensis Flavonol Synthase” (Frontiers in Pharmacology, 2022).

Tested on: T1, COc1ccc([C@@H]2CC(=O)c3c(O)cc(O)cc3O2)cc1O
T1 construct: synthetic gene in pET-28a(+) (NcoI/XhoI), expressed in E. coli BL21(DE3); 365 residues
Test: UPLC-MS product formation, Lineweaver-Burk
Assay type: biochemical, Angelica archangelica
Conditions: diosmetin formation (main product), Tris-HCl pH 7.5, 23 °C, 1 h, 5 mM 2-mercaptoethanol, 1 mM NADPH, 'separated protein', purification not described
Source text: UPLC-MS product formation, Lineweaver-Burk on […]

Chain of AnFNS I (Angelica archangelica) (chain, as listed by the source): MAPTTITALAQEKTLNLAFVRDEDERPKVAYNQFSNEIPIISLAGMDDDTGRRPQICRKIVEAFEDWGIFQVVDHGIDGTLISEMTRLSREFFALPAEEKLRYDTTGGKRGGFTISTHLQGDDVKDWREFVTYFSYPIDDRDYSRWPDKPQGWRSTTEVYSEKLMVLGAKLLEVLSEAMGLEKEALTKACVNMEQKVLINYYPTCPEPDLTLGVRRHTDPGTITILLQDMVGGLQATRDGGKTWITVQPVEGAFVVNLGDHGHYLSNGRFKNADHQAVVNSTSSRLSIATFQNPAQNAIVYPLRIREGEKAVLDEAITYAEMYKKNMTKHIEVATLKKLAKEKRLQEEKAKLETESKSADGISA

Substance: AnFNS I (Angelica archangelica)
- Km: 59.04 µM
- Vmax: 0.0366 µmol/min/mg
- kcat: 0.0249 s⁻¹
- kcat/Km: 423 M⁻¹ s⁻¹
